# Assay results from patent US7132274B2, “Method for identifying modulators of CLK-1 and UbiF activity” (priority 2003, dated 2006).
# System: E. coli JF496 (ubiF411)
# Assay: JF496 complementation (growth rescue) assay
# Format: cell-based
# Details: C. elegans CLK-1 variants expressed in JF496; growth rate relative to wild type CLK-1
# Excerpt: JF496 is useful for complementation assays using eukaryotic clk-1. As with all other ubi mutants, JF496 has a weak growth in liquid culture, and cannot use succinate as a unique carbon source. These characteristics were used to develop a gain-of-function assay, where JF496 was transformed with a eukaryotic clk-1 (here from C. elegans) and then wild-type growth was identified. Transgenic E. coli ubiF (Kwon et al., 2000 FEMS Microbiol Lett, 186, 157–161), and clk-1 from proteobacteria (Stenmark et al., 2001 J Biol Chem, 276, 33297–33300) have been tested in JF496.
# Growth conditions—For complementation assays, plasmids are freshly transformed by electroporation into E. coli JF496 ubiF(DE3) and grown overnight at 37° C. in 5 mL LB with 50 μg/mL ampicillin. The cultures are diluted 1/10 and OD600 measured. A bacterial volume corresponding to an OD600 of 0.03 in 5 mL is taken, centrifuged and resuspended in 100 μl of M9 medium. It is then added into 5 mL M9 containing 1 mM MgSO4, 20 μM CaCl2, 0.5 μg/mL thiamine, 0.12% casamino acids, 40 μg/mL D-L-methionine, 100 μg/mL L-asparagine, trace metals and 50 μg/mL ampicillin. This medium is supplemented with 0.5% glucose or 0.5% succinate. E. coli JF496 is grown at 37° C. for 8 hours. Samples (700-μL) are taken at 2-hour intervals and the OD600 is measured in order to determine the growth rate.
# Growth conditions—as described above in Section 6.1
# A selection of CLK-1 variants were constructed by site-directed mutagenesis and cloned into the JF496 system to assess their enzymatic activity relative to the wild type. The respective strains of JF496-clk-1 variants were cultured as described and the growth rate of each were measured. The results as shown in Table 4 indicate that certain residues and regions are not tolerant of amino acid substitution (amino acid substitution is indicated by one-letter codes).
row,Molecule,Activity in JF496 system
1,"CDB 728: C. elegans CLK-1 variant, mutation E112A (protein, UniProt P48376 9-187, looked up, variant E112A) NADPH-dependent …: AHTAASRQALIEKIIRVDHAGELGADRIYAGQLAVLQGSSVGSVIKKMWDEEKEHLDTMERLAAKHNVPHTVFSPVFSVAAYALGVGSALLGKEGAMACTIAVAELIGQHYNDQLKELLADDPETHKELLKILTRLRDEELHHHDTGVEHDGMKAPAYSALKWIIQTGCKGAIAIAEKI",Inactive
2,"CDB 716: C. elegans CLK-1 variant, mutation H118A (protein, UniProt P48376 9-187, looked up, variant H118A) NADPH-dependent …: AHTAASRQALIEKIIRVDHAGELGADRIYAGQLAVLQGSSVGSVIKKMWDEEKEHLDTMERLAAKHNVPHTVFSPVFSVAAYALGVGSALLGKEGAMACTIAVEELIGQAYNDQLKELLADDPETHKELLKILTRLRDEELHHHDTGVEHDGMKAPAYSALKWIIQTGCKGAIAIAEKI",Inactive
3,"CDB 725: C. elegans CLK-1 variant, mutation E147A/H151Q, less active than wild type (protein, UniProt P48376 9-187, looked up, variant E147A H151Q) NADPH-dependent …: AHTAASRQALIEKIIRVDHAGELGADRIYAGQLAVLQGSSVGSVIKKMWDEEKEHLDTMERLAAKHNVPHTVFSPVFSVAAYALGVGSALLGKEGAMACTIAVEELIGQHYNDQLKELLADDPETHKELLKILTRLRDAELHQHDTGVEHDGMKAPAYSALKWIIQTGCKGAIAIAEKI",Partially active
4,"CDB 720: C. elegans CLK-1 variant, mutation E30A (protein, UniProt P48376 9-187, looked up, variant E30A) NADPH-dependent …: AHTAASRQALIEKIIRVDHAGALGADRIYAGQLAVLQGSSVGSVIKKMWDEEKEHLDTMERLAAKHNVPHTVFSPVFSVAAYALGVGSALLGKEGAMACTIAVEELIGQHYNDQLKELLADDPETHKELLKILTRLRDEELHHHDTGVEHDGMKAPAYSALKWIIQTGCKGAIAIAEKI",Inactive
5,"CDB 726: C. elegans CLK-1 variant, mutation G32D (protein, UniProt P48376 9-187, looked up, variant G32D) NADPH-dependent …: AHTAASRQALIEKIIRVDHAGELDADRIYAGQLAVLQGSSVGSVIKKMWDEEKEHLDTMERLAAKHNVPHTVFSPVFSVAAYALGVGSALLGKEGAMACTIAVEELIGQHYNDQLKELLADDPETHKELLKILTRLRDEELHHHDTGVEHDGMKAPAYSALKWIIQTGCKGAIAIAEKI",Inactive
6,"CDB 719: C. elegans CLK-1 variant, mutation H63A (protein, UniProt P48376 9-187, looked up, variant H63A) NADPH-dependent …: AHTAASRQALIEKIIRVDHAGELGADRIYAGQLAVLQGSSVGSVIKKMWDEEKEALDTMERLAAKHNVPHTVFSPVFSVAAYALGVGSALLGKEGAMACTIAVEELIGQHYNDQLKELLADDPETHKELLKILTRLRDEELHHHDTGVEHDGMKAPAYSALKWIIQTGCKGAIAIAEKI",Inactive
7,"CDB 723: C. elegans CLK-1 variant, mutation E148K/L149N (protein, UniProt P48376 9-187, looked up, variant E148K L149N) NADPH-dependent …: AHTAASRQALIEKIIRVDHAGELGADRIYAGQLAVLQGSSVGSVIKKMWDEEKEHLDTMERLAAKHNVPHTVFSPVFSVAAYALGVGSALLGKEGAMACTIAVEELIGQHYNDQLKELLADDPETHKELLKILTRLRDEKNHHHDTGVEHDGMKAPAYSALKWIIQTGCKGAIAIAEKI",Inactive
8,"CDB 721: C. elegans CLK-1 variant, mutation Y37A (protein, UniProt P48376 9-187, looked up, variant Y37A) NADPH-dependent …: AHTAASRQALIEKIIRVDHAGELGADRIAAGQLAVLQGSSVGSVIKKMWDEEKEHLDTMERLAAKHNVPHTVFSPVFSVAAYALGVGSALLGKEGAMACTIAVEELIGQHYNDQLKELLADDPETHKELLKILTRLRDEELHHHDTGVEHDGMKAPAYSALKWIIQTGCKGAIAIAEKI",Active
9,"CDB 724: C. elegans CLK-1 variant, mutation E62L (protein, UniProt P48376 9-187, looked up, variant E62L) NADPH-dependent …: AHTAASRQALIEKIIRVDHAGELGADRIYAGQLAVLQGSSVGSVIKKMWDEEKLHLDTMERLAAKHNVPHTVFSPVFSVAAYALGVGSALLGKEGAMACTIAVEELIGQHYNDQLKELLADDPETHKELLKILTRLRDEELHHHDTGVEHDGMKAPAYSALKWIIQTGCKGAIAIAEKI",Active

# System: E. coli JF496 (ubiF411)
# Assay: not given
# Details: yeast orthologue of clk-1; cited from earlier work
row,Molecule,complementation of UbiF-deficiency in JF496 bacteria
1,"Saccharomyces pombe coq7: yeast orthologue of clk-1 (protein, UniProt O74826 28-216, looked up) 5-demethoxyubiquinone …: ISMGRKELSEKDSNILDSVIRVDQAGELGANQIYKGQHFILQFTDPKVAPTIQHMWDQEKYHLATFDNYVLKNRVRPTFLRPFWDIAGFALGAGTALLGTKAAMACTEAVETVIGGHYNDQLRETAHLENKAPEFKEIRSHLAEFRDDELEHLNTAVEGWNAKEAPAHALLTNAIQMGCKAAIWMCKRF",cannot complement
